Reference: publication PMC3424542

Target: T1, XtrLin28b CSD (Xenopus tropicalis, UniProt B4F6I0 27-114)
T1 sequence: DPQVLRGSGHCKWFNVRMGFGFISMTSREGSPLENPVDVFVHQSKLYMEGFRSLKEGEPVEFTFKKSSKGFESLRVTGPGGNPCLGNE
Test: crystal structure

UUUUUU (ssRNA) [rU6]
binding result: binds
